Results taken from publication PMC7919418.
Where two headings read alike, the source gives them in different places.

Experiments:
[1] = molecular target: T1, SFiNX[wild type] (Panx-Nxf2-Nxt1-Ctp) (Drosophila melanogaster, UniProt Q9W2H9;Q9VV73;Q9V3H8;Q24117 263-541;541-841;1-133;1-89); assay: EMSA
[2] = molecular target: T1, SFiNX[wild type] (Panx-Nxf2-Nxt1-Ctp); assay: EMSA; remark: listed apart in the source

T1 sequence (Q9W2H9 263-541, chain 1 of 3): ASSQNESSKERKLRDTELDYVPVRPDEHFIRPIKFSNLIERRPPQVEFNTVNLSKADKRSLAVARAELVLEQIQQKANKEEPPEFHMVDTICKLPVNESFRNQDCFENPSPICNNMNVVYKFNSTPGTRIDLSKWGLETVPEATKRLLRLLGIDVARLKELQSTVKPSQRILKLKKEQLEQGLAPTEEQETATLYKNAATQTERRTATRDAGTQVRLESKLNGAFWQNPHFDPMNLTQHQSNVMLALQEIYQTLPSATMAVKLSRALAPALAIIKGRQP
T1 sequence (Q9VV73 541-841, chain 2 of 3): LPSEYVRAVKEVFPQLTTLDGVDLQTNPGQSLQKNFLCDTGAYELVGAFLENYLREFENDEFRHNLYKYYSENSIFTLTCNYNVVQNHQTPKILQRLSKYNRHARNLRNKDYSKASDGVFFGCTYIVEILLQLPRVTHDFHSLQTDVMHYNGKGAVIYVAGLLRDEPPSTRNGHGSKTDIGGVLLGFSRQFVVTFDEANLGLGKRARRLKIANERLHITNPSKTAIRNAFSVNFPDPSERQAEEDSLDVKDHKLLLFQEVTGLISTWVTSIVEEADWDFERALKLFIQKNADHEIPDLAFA
T1 sequence (Q24117 whole entry, chain 4 of 3): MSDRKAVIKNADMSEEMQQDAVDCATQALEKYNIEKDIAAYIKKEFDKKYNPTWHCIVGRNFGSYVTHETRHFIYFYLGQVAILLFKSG

Row | Binder | binding result [1] | binding result [2]
1 | 25-bp dsDNA (dsDNA) DNA 1: ACGCTCAAGTCAGAGGTGGCGAAAC DNA 2: GTTTCGCCACCTCTGACTTGAGCGT | binds | –
2 | CUCAUCUUGGUCGUACGCGGAAUAGUUUAAACUGU (ssRNA) [35-nt ssRNA] | – | binds
3 | 35-bp dsRNA (dsRNA) RNA 1: CUCAUCUUGGUCGUACGCGGAAUAGUUUAAACUGU RNA 2: ACAGUUUAAACUAUUCCGCGUACGACCAAGAUGAG | binds | –
